We go through 4 molecules from patent US20250388664A1 (BIOARCTIC, published 2025).

Assay [1] has as its target T1, truncated cTfR1 of SEQ ID NO:123 (cynomolgus monkey, UniProt Q5RDH6 122-760 (Pongo abelii entry)).
T1 construct: also called cynomolgus TfR1
T1 chain: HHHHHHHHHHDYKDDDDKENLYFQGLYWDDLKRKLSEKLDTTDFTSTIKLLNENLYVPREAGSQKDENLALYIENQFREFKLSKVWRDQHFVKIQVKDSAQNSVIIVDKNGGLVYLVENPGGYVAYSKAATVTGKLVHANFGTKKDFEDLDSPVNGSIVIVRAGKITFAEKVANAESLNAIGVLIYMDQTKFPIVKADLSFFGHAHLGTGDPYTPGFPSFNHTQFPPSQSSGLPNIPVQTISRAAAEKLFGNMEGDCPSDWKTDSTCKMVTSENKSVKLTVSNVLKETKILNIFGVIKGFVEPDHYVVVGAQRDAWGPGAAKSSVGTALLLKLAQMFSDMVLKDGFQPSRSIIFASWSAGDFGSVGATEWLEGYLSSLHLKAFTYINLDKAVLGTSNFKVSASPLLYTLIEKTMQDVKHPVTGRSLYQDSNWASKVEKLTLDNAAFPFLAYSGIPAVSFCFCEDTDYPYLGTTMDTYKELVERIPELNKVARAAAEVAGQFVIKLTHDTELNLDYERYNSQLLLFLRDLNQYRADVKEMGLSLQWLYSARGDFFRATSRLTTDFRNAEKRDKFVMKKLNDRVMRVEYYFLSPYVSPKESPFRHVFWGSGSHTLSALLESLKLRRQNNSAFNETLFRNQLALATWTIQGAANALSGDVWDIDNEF
The assay can be described thus: SPR (Biacore 8K), single cycle kinetics: cTfR1 amine-coupled on a CM5 chip, Fab injected in a 2-fold series of four steps from 100 nM. Here is the method:
(§1) Binding of the purified Fabs to human and cynomolgus TfR1 was evaluated using either SPR (FIG. 44) or indirect ELISA (FIG. 45). For SPR, a Biacore 8K instrument (Cytiva) was used. […] The Fabs were injected over the chip using a 2-fold dilution series in four steps starting at 100 nM. The interaction was measured using the single cycle kinetics method with a contact time of 120 s at a flow rate of 30 μl/min followed by a dissociation time of 1000 s. Regeneration of the surface between cycles was done by injecting 3M MgCl₂. The binding data was fitted to a 1:1 interaction model. The Fabs were diluted in HBS-EP+ (Cytiva, #BR100669). Experiments were performed at 25° C.

Assay [2] has as its target T2, truncated hTfR1 of SEQ ID NO:122 (human, UniProt P02786 122-760).
T2 construct: also called human TfR1; Human TfR1
The assay can be described thus: SPR, TfR1 amine-coupled, Fab injected, 1:1 fit. Here is the method:
as §1
In general terms: SPR reads the build-up and loss of mass on a sensor chip optically.

Assay [3] concerns the target T3, AβpE3-40 monomer (UniProt P05067 674-711, pyroglutamate at position 3 (N-terminal residue)). The assay can be described thus: cell-based or functional assay.
Assay [4] concerns the target T3, AβpE3-40 monomer. The assay can be described thus: SPR, antibody immobilised, monomer injected, 1:1 fit. As for the experimental part:
Single cycle kinetics with the binding molecules immobilized on a CM5 chip was used to measure binding to the AβpE3-40 monomer. For the measurements, 5 μg/ml of analyte binding molecule was immobilized on the chip. […] Regeneration of the surface between cycles was done by injecting 30 μl 3 M MgCl₂ (Cytiva, cat. No. 29234600). The binding data was fitted to a 1:1 interaction model.

The target in assay [5] is T3, AβpE3-40 monomer. The assay can be described thus: inhibition ELISA, antigen titrated in solution, AβpE3-40 coat. As for the experimental part:
(§2) The tested molecules were incubated at a fixed concentration (0.1 μg/ml) with titrating concentrations of the different AβpE3 antigens. After incubation for 45 min at 900 rpm to reach equilibrium, the samples were added to a blocked and washed ELISA plate with an AβpE3-40 coat (0.5 μM). The samples were incubated on the plate for 25 min without shaking followed by washing, incubation with detection antibody, another washing step and finally incubation with alkaline phosphatase substrate.
A general note: In an ELISA, binding on a coated surface is turned into a signal by an enzyme label.

In assay [6] the target is T4, AβpE3-42 protofibrils (UniProt P05067 674-713, pyroglutamate at position 3 (N-terminal residue)).
T4 construct: range 3-42 (Aβ numbering); Soluble aggregates made from AβpE3-42 peptide, purified in the void peak of SEC; also called AβpE3-42 PF
The description is as above. Here is the method: as §2

Assay [7] deals with T5, hTfR1 on cell surfaces (human, UniProt P02786 1-760).
T5 construct: Endogenous receptor on human cell lines; also called endogenous hTfR1 on hCMEC/D3, THP-1 and K562 cells; CD71
Description: flow cytometry on Fc-blocked K562 cells, 1 h at 4°C, detection with PE anti-human IgG Fc. For orientation: Flow cytometry measures light scatter and fluorescence of single cells or particles in a stream.

For assay [8], the target named is T6, hTfR1 (recombinant, construct not specified) (human, UniProt P02786 89-760, limits assumed).
T6 construct: also called biotinylated hTfR1
Description: BLI: hTfR1 captured on biotinylated human holo-transferrin on streptavidin sensors, 15 nM Fab in solution, 120 s association, 300 s dissociation. Here is the method: A more detailed binding analysis by BLI was performed on purified, selected antibodies. […] For example, the BLI instrument Octet Red384 was used to measure binding between immobilized TfR1 and the tested Fab fragments in solution. […] Antibody binding to TfR1 was measured during an association phase of 120 s and a dissociation phase of 300 s.

Assay [9] concerns the target T6, hTfR1 (recombinant, construct not …). Description: indirect ELISA on an hTfR1 coat, detection with anti-mouse IgG F(ab')2, normalised A450 against log antibody concentration in pM.
Assay [10] deals with T2, truncated hTfR1 of SEQ ID NO:122. Description: SPR, TfR1 amine-coupled, Fab injected, 1:1 fit. As for the experimental part:
(§3) The interaction was measured using the single cycle kinetics method with a contact time of 120 s at a flow rate of […] followed by a dissociation time of 600 s. Regeneration of the surface between cycles was done by injecting 3M MgCl₂. The binding data were fitted to a 1:1 interaction model. The Fabs were diluted in HBS-EP+ (Cytiva, #BR100669). Experiments were performed at 25° C.
The source holds these as a separate data set.

In assay [11] the target is T1, truncated cTfR1 of SEQ ID NO:123. Description: SPR, TfR1 amine-coupled, Fab injected, 1:1 fit. As for the experimental part:
as §3

Read-outs that look alike come from different tables or passages of the source.

T3 sequence (P05067 674-711): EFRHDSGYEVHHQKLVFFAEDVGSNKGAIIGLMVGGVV
T4 sequence (P05067 674-713): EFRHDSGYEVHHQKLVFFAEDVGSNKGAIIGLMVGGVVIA

B1: h26D3 variant LC5 Fab (Fab, V domains shown)
VH: EVQLVQSGAEVKKPGSSVKVSCKASGYIFTDYNMDWVRQAPGQGLEWIGDINPDYDTTSYNEKFKGRATLTVDKSTSTAYMELSSLRSEDTAVYYCARGGYSGSSYYHPMDYWGQGTLVTVSS
VL: DIQMTQSPSSVSASVGDRVTITCKSSQSLLYSTNQKNYLAWYQQKPGKAPKLLIYWASTRESGVPSRFSGSGSGTDFTLTISSLQPEDFATYYCQQAFIYPRTFGQGTKVEIK
notes: Single-mutant His-tagged Fab; also called Y97A
As a reminder, the Kd is the constant that tells how readily two partners part at equilibrium. In the case of B1, the binding result in assay [1] is “binds”. The same molecule returned a Kd in assay [2] of 240 nM.

B2: BA003 (antibody, human IgG1, kappa)
light: EIVLTQSPLSLSVTLGQSASISCRSSQSLLDSNGKTYLHWFILRPGQSPRRLIYLVSILDSGVPDRFSGSGSGTDFTLKISRVEAEDVGVYYCVQGTHFPFTFGSGTKLEIKRTVAAPSVFIFPPSDEQLKSGTASVVCLLNNFYPREAKVQWKVDNALQSGNSQESVTEQDSKDSTYSLSSTLTLSKADYEKHKVYACEVTHQGLSSPVTKSFNRGEC
heavy: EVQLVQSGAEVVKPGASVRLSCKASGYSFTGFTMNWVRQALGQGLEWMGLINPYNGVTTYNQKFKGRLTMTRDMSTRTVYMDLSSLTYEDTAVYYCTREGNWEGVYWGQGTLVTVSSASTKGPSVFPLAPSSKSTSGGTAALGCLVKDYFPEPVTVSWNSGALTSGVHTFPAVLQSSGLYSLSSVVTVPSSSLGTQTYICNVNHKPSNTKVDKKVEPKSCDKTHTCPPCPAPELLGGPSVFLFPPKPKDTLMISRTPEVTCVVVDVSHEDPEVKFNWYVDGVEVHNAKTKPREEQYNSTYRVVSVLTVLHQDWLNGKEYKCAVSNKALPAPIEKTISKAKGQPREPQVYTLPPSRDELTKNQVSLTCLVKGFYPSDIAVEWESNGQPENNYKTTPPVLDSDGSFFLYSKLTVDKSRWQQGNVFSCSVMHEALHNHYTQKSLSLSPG
notes: also called comparator antibody BA003; control antibody BA003
One may read the koff as the first-order rate constant of dissociation. For orientation: kon means the rate constant with which the complex forms. A high value points to faster complex formation. One may read the IC50 as the point on the concentration scale where inhibition reaches its midpoint. Take B2: the “Uptake of AβpE3-40 monomers in THP-1 cells, EC50” value in assay [3] amounted to 2.2 nM. In assay [4], the equilibrium dissociation constant (Kd) is 2.33 nM, the koff amounted to 0.000127 s⁻¹ and the kon was determined as 54600 M⁻¹ s⁻¹. In addition, the IC50 in assay [5] came to 1.1 nM. In addition, the half-inhibitory concentration (IC50) in assay [6] turned out to be 2.2 nM. The binding result in assay [7] is recorded as “no binding (tested: 10000 nM)”.

B3: 37D10-Fab (Fab, V domains shown)
VH: QVQLQQSGAELVRPGTSVKISCKASGYAFTNYWLGWVKQRPGHGLEWIGDIFPGSDNTYYNEKFKGKATLTADKSSSTAYMQLSSLASEDSAVYFCARSGNFYAMDYWGQGTSVTVSS
VL: ENVLTQSPAIMSASPGEKVTMTCSASSSVNYMNWYQQKSSTFPKLWIYDTSKLASGVPGRFSGSGSGKFYSLTISSMEAEDVATYYCFQGSGYPFTFGSGTKLEIK
notes: Fab of murine 37D10
Consider B3, for which the binding result in assay [8] is recorded as “binds”.

B4: 26D3-Fab (Fab, V domains shown)
VH: EVQLQQFGVELVKPGASVKISCKASGYIFTDYNMDWVKQSHGKSLEWIGDINPDYDTTSYNEKFKGKATLTVDKSSSTAYMELRSLTSEDTAVYYCARGGYSGSSYYHPMDYWGQGTSVTVSS
VL: DIVMSQSPSSLAVSVGEKITMSCKSSQSLLYSTNQKNYLAWYQQKPGQSPELLIYWASTRESGVPDRFTGSGSGTDFTLTISNVRAEDLAVYYCQQYFIYPRTFGGGTKLEIK
notes: Fab of murine 26D3; also called murine 26D3 Fab
The EC50 (read off the curve) is the concentration giving half of the maximal effect. In the case of B4, the “EC50 (read off the curve)” value in [9] was ~0.06 nM. Besides, the dissociation constant Kd worked out at 3.6 nM in assay [10] and 10 nM in assay [11].
